One test deals with T1, 4H4073-bN.
T1 chain: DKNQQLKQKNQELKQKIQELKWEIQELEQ
Description: two-hybrid library CCNG1.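 Also: natural log of median RNA to DNA barcode read ratio; higher means stronger binding.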

In the next test the target is T2, 4H457-bN.
T2 chain: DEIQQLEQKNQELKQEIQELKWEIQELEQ
Description: two-hybrid library CCNG1.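 Also: natural log of median RNA to DNA barcode read ratio; higher means stronger binding.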

Another test has as its target T3, 4H575-bN.
T3 chain: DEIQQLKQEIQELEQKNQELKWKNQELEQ
Description: two-hybrid library CCNG1.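 Also: natural log of median RNA to DNA barcode read ratio; higher means stronger binding.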

A further test addresses T4, 4H683-bN.
T4 chain: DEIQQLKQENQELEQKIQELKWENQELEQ
Kind of test: two-hybrid library CCNG1.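 Also: natural log of median RNA to DNA barcode read ratio; higher means stronger binding.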

The target in another test is T5, 4H754-bN.
T5 chain: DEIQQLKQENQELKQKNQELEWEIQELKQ
Description: two-hybrid library CCNG1.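 Also: natural log of median RNA to DNA barcode read ratio; higher means stronger binding.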

The target in another test is T6, 4H780-bN.
T6 chain: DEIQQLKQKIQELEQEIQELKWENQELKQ
Description: two-hybrid library CCNG1.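 Also: natural log of median RNA to DNA barcode read ratio; higher means stronger binding.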

A further test deals with T7, 4H797-bN.
T7 chain: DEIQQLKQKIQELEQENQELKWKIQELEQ
Description: two-hybrid library CCNG1.

A further test addresses T8, 4H855-bN.
T8 chain: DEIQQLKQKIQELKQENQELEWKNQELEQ
Kind of test: two-hybrid library CCNG1.

The target in a further test is T9, 4H918-bN.
T9 chain: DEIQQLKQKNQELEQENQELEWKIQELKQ
Description: two-hybrid library CCNG1.

In a further test the target is T10, 4H953-bN.
T10 chain: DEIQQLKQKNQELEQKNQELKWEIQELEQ
Description: two-hybrid library CCNG1.

The next test has as its target T11, 4H968-bN.
T11 chain: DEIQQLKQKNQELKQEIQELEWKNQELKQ
Description: two-hybrid library CCNG1.

A further test has as its target T12, APC3881-AA.
T12 chain: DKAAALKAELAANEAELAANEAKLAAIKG
Kind of test: two-hybrid library CCmax.

Another test concerns the target T13, APC4100-AA.
T13 chain: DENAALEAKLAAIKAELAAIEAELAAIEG
Kind of test: two-hybrid library CCmax. The note with it: mean of both orientations.

Another test deals with T14, APC4336-AA.
T14 chain: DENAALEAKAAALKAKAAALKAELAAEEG
Kind of test: two-hybrid library CCmax. The following applies: mean of both orientations.

For the next test, the target named is T15, APC5009-AA.
T15 chain: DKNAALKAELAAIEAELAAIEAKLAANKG
Kind of test: two-hybrid library CCmax.

The target in the next test is T16, APC542-AA.
T16 chain: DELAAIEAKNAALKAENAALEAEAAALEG
Description: two-hybrid library CCmax. The following applies: mean of both orientations.

A further test has as its target T17, APC5531-AA.
T17 chain: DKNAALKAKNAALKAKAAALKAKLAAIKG
Description: two-hybrid library CCmax. The note with it: mean of both orientations.

The next test has as its target T18, APC6088-AA.
T18 chain: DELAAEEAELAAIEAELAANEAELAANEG
Kind of test: two-hybrid library CCmax. The note with it: mean of both orientations.

Another test addresses T19, APC7524-AA.
T19 chain: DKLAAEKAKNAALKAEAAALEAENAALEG
Kind of test: two-hybrid library CCmax. The following applies: mean of both orientations.

The next test addresses T20, APC8401-AA.
T20 chain: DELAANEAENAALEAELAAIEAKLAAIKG
Kind of test: two-hybrid library CCmax. The note with it: mean of both orientations.

The target in the next test is T21, APC8516-AA.
T21 chain: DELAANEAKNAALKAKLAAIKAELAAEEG
Kind of test: two-hybrid library CCmax. The following applies: mean of both orientations.

For a further test, the target named is T22, APC9141-AA.
T22 chain: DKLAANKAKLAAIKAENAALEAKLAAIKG
Kind of test: two-hybrid library CCmax. The note with it: mean of both orientations.

In the next test the target is T23, APC9182-AA.
T23 chain: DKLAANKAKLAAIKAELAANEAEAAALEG
Description: two-hybrid library CCmax. The following applies: mean of both orientations.

In a further test the target is T24, APC9291-AA.
T24 chain: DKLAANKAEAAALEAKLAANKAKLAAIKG
Kind of test: two-hybrid library CCmax. The note with it: mean of both orientations.

The next test concerns the target T25, APC9806-AA.
T25 chain: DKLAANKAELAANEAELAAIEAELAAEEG
Description: two-hybrid library CCmax. The following applies: mean of both orientations.

A further test deals with T26, 4H4001-bA.
T26 chain: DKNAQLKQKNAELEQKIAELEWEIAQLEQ
Description: two-hybrid library CCNG1.

The target of the next test is T27, 4H454-bA.
T27 chain: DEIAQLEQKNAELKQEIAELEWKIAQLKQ
Kind of test: two-hybrid library CCNG1.

A further test has as its target T28, 4H462-bA.
T28 chain: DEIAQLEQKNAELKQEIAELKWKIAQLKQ
Description: two-hybrid library CCNG1.

The next test addresses T29, 4H568-bA.
T29 chain: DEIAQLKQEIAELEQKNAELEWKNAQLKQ
Description: two-hybrid library CCNG1.

The next test has as its target T30, 4H607-bA.
T30 chain: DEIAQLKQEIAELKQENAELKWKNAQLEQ
Description: two-hybrid library CCNG1.

For another test, the target named is T31, 4H687-bA.
T31 chain: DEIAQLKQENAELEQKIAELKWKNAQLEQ
Kind of test: two-hybrid library CCNG1.

The next test deals with T32, 4H717-bA.
T32 chain: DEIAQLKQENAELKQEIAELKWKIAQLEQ
Description: two-hybrid library CCNG1.

In a further test the target is T33, 4H72-bA.
T33 chain: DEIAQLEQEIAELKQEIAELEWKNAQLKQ
Description: two-hybrid library CCNG1.

A further test deals with T34, 4H754-bA.
T34 chain: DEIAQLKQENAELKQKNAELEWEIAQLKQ
Description: two-hybrid library CCNG1.

Another test addresses T35, 4H797-bA.
T35 chain: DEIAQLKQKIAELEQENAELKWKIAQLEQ
Description: two-hybrid library CCNG1.

The target of the next test is T36, 4H883-bA.
T36 chain: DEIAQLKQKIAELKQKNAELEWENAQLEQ
Description: two-hybrid library CCNG1.

A further test addresses T37, 4H908-bA.
T37 chain: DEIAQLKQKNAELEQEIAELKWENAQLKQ
Kind of test: two-hybrid library CCNG1.

The next test concerns the target T38, 4H918-bA.
T38 chain: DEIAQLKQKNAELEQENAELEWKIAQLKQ
Description: two-hybrid library CCNG1.

The target in the next test is T39, 4H953-bA.
T39 chain: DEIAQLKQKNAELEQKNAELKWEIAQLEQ
Kind of test: two-hybrid library CCNG1.

The target in the next test is T40, 4H967-bA.
T40 chain: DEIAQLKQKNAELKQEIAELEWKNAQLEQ
Kind of test: two-hybrid library CCNG1.

Another test deals with T41, 4H3926-bN.
T41 chain: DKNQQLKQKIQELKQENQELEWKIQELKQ
Description: two-hybrid library CCNG1. The note with it: mean of both orientations.

For the next test, the target named is T42, 4H591-bN.
T42 chain: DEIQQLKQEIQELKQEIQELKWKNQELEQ
Kind of test: two-hybrid library CCNG1.

Another test concerns the target T43, 4H626-bN.
T43 chain: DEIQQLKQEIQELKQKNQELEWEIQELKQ
Description: two-hybrid library CCNG1.

The next test deals with T44, 4H906-bN.
T44 chain: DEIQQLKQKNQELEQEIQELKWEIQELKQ
Kind of test: two-hybrid library CCNG1.

In the case of DKNQQLKQKNQELKQKIQELKWEIQELEQ [4H4073-bN], the interaction score in the test with 4H4073-bN was -1.77; with 4H457-bN, -0.816; in the test with 4H575-bN, -1.72; with 4H683-bN, -1.31; with 4H754-bN it was -1.18; in the test with 4H780-bN, -0.882. For the same molecule, the interaction score with 4H797-bN was -0.921; in the test with 4H855-bN it was -0.729; with 4H918-bN it was -0.772; with 4H953-bN it was -1.56; with 4H968-bN, -1.13.

In the case of DKAAALKAELAANEAELAANEAKLAAIKG [APC3881-AA], the interaction score in the test with APC3881-AA is -1.67; with APC4100-AA it was -1.25; with APC4336-AA it was -1.5; with APC5009-AA, -1.15; with APC542-AA it was -1.63; in the test with APC5531-AA, -1.92. In addition, the interaction score with APC6088-AA was -1.78; with APC7524-AA, -1.49; in the test with APC8401-AA, -1.61; with APC8516-AA, -1.39; with APC9141-AA it was -1.38; in the test with APC9182-AA, -1.63. Further, the interaction score with APC9291-AA is -2.12; in the test with APC9806-AA, -1.72.

Take DKNAQLKQKNAELEQKIAELEWEIAQLEQ [4H4001-bA]: the interaction score was -0.927 in the test with 4H4001-bA; 1.01 with 4H454-bA; -0.0948 with 4H462-bA; -1.47 in the test with 4H568-bA; -1.34 in the test with 4H607-bA; -1.34 in the test with 4H687-bA. Also, the interaction score with 4H717-bA was -2.02; with 4H72-bA it was -1.27; with 4H754-bA, -1.03; with 4H797-bA it was -1.28; with 4H883-bA it was -0.688; with 4H908-bA, -0.992. In addition, the values for the interaction score with 4H918-bA, with 4H953-bA and with 4H967-bA were -1.15, -1.52 and -1.03, respectively.

For the molecule DKNQQLKQKIQELKQENQELEWKIQELKQ [4H3926-bN], the interaction score with 4H3926-bN was -0.623; in the test with 4H4073-bN, -1.26; with 4H457-bN, 1.06; with 4H575-bN it was 0.813; with 4H591-bN, 0.172; with 4H626-bN, -0.388. The interaction score in the test with 4H683-bN was -1.15; with 4H754-bN it was -0.867; with 4H780-bN, -0.772; with 4H797-bN, -0.358; with 4H855-bN, -0.684; with 4H906-bN, -0.529. The results for the interaction score with 4H918-bN, with 4H953-bN and with 4H968-bN were -2.11, -0.788 and -0.934, respectively.

These data come from PMC10397247.
